Source: article PMC7510951 (Cancer research, 2020)

Target: T1, 6xHis-EYA2 ED (human EYA2 residues 253-538) (human, UniProt O00167 253-538)
T1 sequence (looked up): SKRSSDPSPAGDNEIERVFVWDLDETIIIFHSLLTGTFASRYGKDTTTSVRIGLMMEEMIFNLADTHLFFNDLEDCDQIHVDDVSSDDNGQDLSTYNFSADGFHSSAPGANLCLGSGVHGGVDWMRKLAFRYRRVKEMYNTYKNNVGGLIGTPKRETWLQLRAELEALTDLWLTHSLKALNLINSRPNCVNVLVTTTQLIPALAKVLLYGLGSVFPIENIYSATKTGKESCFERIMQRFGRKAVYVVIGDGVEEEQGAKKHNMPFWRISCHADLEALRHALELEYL
Assay: AlphaScreen or HTRF

B1: GST-SIX1 (human SIX1 residues 1-259) (domain or fragment, UniProt Q15475 1-259, looked up)
chain: MSMLPSFGFTQEQVACVCEVLQQGGNLERLGRFLWSLPACDHLHKNESVLKAKAVVAFHRGNFRELYKILESHQFSPHNHPKLQQLWLKAHYVEAEKLRGRPLGAVGKYRVRRKFPLPRTIWDGEETSYCFKEKSRGVLREWYAHNPYPSPREKRELAEATGLTTTQVSNWFKNRRQRDRAAEAKERENTENNNSSSNKQNQLSPLEGGKPLMSSSEEEFSPPQSPDQNSVLLLQGNMGHARSSNYSLPGLTASQPSHG
binding result: binds
